Experiments:
usp/PPAR heterodimer = target: T1, usp/PPAR heterodimer (Drosophila melanogaster / Rattus …, UniProt P20153;P37230 P20153:1-508,P37230:1-468); test: EMSA; high affinity; usp antibody supershift; details: label: 32P
T1 sequence 1: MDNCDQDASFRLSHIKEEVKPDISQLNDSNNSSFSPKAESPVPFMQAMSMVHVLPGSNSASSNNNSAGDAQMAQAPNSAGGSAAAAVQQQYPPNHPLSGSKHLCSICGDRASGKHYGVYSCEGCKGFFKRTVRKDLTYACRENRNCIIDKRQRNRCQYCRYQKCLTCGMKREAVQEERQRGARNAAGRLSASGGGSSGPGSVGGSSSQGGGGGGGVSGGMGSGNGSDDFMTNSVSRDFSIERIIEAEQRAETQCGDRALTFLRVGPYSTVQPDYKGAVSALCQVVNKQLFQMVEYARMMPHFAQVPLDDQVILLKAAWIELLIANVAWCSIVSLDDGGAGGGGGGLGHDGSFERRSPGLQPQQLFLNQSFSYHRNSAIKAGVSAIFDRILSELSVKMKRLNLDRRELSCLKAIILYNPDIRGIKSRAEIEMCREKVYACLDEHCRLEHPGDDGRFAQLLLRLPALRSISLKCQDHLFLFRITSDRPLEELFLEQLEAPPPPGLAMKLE
T1 sequence 2: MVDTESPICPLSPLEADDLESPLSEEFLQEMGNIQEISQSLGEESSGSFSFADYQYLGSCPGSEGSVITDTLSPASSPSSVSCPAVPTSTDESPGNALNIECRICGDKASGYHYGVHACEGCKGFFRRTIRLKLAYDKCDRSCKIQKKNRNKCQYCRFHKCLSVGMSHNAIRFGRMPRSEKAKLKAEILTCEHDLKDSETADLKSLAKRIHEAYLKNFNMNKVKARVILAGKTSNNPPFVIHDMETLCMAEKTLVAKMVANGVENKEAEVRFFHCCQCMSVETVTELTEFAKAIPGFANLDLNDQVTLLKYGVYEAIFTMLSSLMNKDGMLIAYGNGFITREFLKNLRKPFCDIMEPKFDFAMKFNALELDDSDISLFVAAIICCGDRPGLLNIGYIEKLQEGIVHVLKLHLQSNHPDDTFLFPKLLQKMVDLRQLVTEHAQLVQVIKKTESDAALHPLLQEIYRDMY
Description: (§1) For gel mobility shift assay, proteins were incubated with binding buffer, which contained 100 mM KCl, 7.5% glycerol, 20 mM HEPES pH 7.5, 2 mM DTT and 0.1% NP-40, on ice for 20 minutes in the presence of 2 μg of nonspecific competitor poly dI-dC and other oligo competitors. Then approximately 1 ng of ^32P-dCTP probe, which was labelled to specific activity about 1-5×10^8 cpm/μg by fill-in reaction with Klenow fragments, was added to the reaction and incubated at room temperature for 20 minutes. Antiserum or preimmune serum was added 10 minutes after the probe was added. The reaction was then loaded into 5% non-denaturing polyacrylamide gel in 0.5×TBE running buffer [1×TBE comprises 0.089 M Tris borate, 0.089 M boric acid and 0.002 M EDTA]. After electrophoresis, the gel was dried for autoradiography.
(§2) Using in vitro translated usp protein, interaction of usp with three mammalian nuclear receptors (TRβ, VDR and PPAR) was tested in gel mobility shift assays with the appropriate response element for each of the three receptors as the probes.

usp/VDR heterodimer = target: T2, usp/VDR heterodimer (Drosophila melanogaster / Homo sapiens, UniProt P20153;P11473 P20153:1-508,P11473:1-427); test: EMSA; usp dependent; usp antibody supershift; details: label: 32P
T2 sequence 1: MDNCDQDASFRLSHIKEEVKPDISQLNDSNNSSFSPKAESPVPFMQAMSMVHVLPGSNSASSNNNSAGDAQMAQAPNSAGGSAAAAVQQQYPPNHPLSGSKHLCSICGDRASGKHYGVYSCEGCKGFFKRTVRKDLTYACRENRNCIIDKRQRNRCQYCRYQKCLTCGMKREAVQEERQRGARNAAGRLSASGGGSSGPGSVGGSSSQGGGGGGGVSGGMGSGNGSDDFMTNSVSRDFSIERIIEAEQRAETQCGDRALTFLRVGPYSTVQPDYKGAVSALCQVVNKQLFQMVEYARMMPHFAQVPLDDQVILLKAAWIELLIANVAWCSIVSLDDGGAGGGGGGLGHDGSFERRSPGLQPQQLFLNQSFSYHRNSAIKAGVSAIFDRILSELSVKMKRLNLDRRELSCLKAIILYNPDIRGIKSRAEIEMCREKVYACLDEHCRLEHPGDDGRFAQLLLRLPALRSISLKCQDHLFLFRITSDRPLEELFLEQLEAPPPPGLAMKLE
T2 sequence 2: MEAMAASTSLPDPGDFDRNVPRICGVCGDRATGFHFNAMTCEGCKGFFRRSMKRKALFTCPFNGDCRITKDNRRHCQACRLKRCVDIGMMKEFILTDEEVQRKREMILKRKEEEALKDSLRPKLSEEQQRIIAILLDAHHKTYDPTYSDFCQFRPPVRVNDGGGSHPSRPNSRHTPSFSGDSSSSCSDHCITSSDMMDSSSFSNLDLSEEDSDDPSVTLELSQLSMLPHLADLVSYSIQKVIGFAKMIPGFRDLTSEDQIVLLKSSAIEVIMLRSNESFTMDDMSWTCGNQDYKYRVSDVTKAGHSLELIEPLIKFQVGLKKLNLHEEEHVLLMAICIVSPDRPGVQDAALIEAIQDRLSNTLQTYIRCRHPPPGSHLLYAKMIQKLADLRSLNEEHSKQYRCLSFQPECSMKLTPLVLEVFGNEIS
Description: as §1, §2

B1: AOX-PPARE (DR1) (dsDNA)
DNA 1: AGGACAAAGGTCA
DNA 2: TGACCTTTGTCCT
B1: binds (usp/PPAR heterodimer).

B2: SPP1-VDRE (DR3, printed SSP1) (dsDNA)
DNA 1: GGTTCACGAGGTTCA
DNA 2: TGAACCTCGTGAACC
B2: binds (usp/VDR heterodimer).

Source: patent US7119077B1, “Multimeric forms of members of the steroid/thyroid superfamily of receptors with the ultraspiracle receptor” (The Salk Institute for Biological Studies, priority 1990, dated 2006)
